We go through 2 proteins from FireProtDB (doi:10.1002/pro.370).

Several values for one entry are separate records, joined by “and”; a condition that tells them apart may be missing. Equal values may be shown once.

First the molecules themselves.
B1: Guanyl-specific ribonuclease Sa wild type, P05798 (protein)
chain: DVSGTVCLSALPPEATDTLNLIASDGPFPYSQDGVVFQNRESVLPTQSYGYYHEYTVITPGARTRGTRRIITGEATQEDYYTGDHYATFSLIDQTC
B2: Variable large protein wild type, O06878 (protein)
chain: MKKISSAILLTTFFVFINCKSQVADKDDPTNKFYQSVIQLGNGFLDVFTSFGGLVAEAFGFKSDPKKSDVKTYFTTVAAKLEKTKTDLNSLPKEKSDISSTTGKPDSTGSVGTAVEGAIKEVSELLDKLVKAVKTAEGASSGTAAIGEVVADADAAKVADKASVKGIAKGIKEIVEAAGGSEKLKAVAAAKGENNKGAGKLFGKAGAAAHGDSEAASKAAGAVSAVSGEQILSAIVTAADAAEQDGKKPEEAKNPIAAAIGDKDGGAEFGQDEMKKDDQIAAAIALRGMAKDGKFAVKDGEKEKAEGAIKGAAESAVRKVLGAITGLIGDAVSSGLRKVGDSVKAASKETPPALNK

For one data set the following is noted: Kitasatospora aureofaciens; pH 3; 25 °C; Urea; CD; Glycine 30 mM; whole UniProt chain shown.
As for B1, the denaturant m value amounted to 1.63 kcal/mol/M, the “denaturant midpoint (higher = more stable)” value (shortened to “denaturant midpoint”) is 1.6 M and the unfolding free energy was 2.6 kcal/mol.

The data set is the same for the next values; noted with them: Kitasatospora aureofaciens; pH 7; 25 °C; Urea; CD; MOPS 30 mM; whole UniProt chain shown.
As to B1, the denaturant m value is 1 kcal/mol/M and 0.94 kcal/mol/M; the “denaturant midpoint” value was 6.4 M and 6.45 M; the unfolding free energy was 6.4 kcal/mol and 6.1 kcal/mol.

The data set is the same for the next values; noted with them: Borreliella burgdorferi; pH 7; 25 °C; Urea; CD; MOPS 30 mM; whole UniProt chain shown.
On to B2, for which the denaturant m value is 3.86 kcal/mol/M, the “denaturant midpoint” value is 1.19 M and the unfolding free energy was found to be 4.6 kcal/mol.
